From the supplement of paper PMC9112550, “Optimization of the antimicrobial peptide Bac7 by deep mutational scanning” (BMC Biology, 2022)

test system: Escherichia coli TOP10; assay: shrunken log2 fold change of peptide-encoding DNA abundance (4.5 h post-induction vs induction); higher = less antimicrobial activity (less host growth inhibition); conditions: time post-induction: 4.5 h; library: site-saturation at positions 5, 18, 19, 20
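Further: peptides expressed intracellularly from a pBAD plasmid library in pooled LB shake-flask culture, induced with 0.3% L-arabinose, DNA abundance read by NGS, three biological replicates, DESeq2 with apeglm shrinkage.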

Sequence | shrunken log2 fold change
RRIRFRPPRLPRPRPRPYVMPRP | -0.651
RRIRVRPPRLPRPRPRPQAGPRP | 0.0465
RRIRGRPPRLPRPRPRPTMLPRP | 0.52
RRIRERPPRLPRPRPRPHNQPRP | -0.325
RRIRARPPRLPRPRPRPMQAPRP | -0.00917
RRIRNRPPRLPRPRPRPMKQPRP | 0.0238
RRIRDRPPRLPRPRPRPFPKPRP | -0.201
RRIRCRPPRLPRPRPRPFMCPRP | -0.0735
RRIRYRPPRLPRPRPRPTFFPRP | -0.0709
RRIRGRPPRLPRPRPRPWHFPRP | -0.0456
RRIRQRPPRLPRPRPRPRKTPRP | 0.00489
RRIRIRPPRLPRPRPRPTTNPRP | -0.463
RRIRMRPPRLPRPRPRPQSMPRP | 0.143
RRIRHRPPRLPRPRPRPEMQPRP | -0.000952
RRIRYRPPRLPRPRPRPAKYPRP | -0.142
RRIRTRPPRLPRPRPRPAYFPRP | 0.0144
RRIRTRPPRLPRPRPRPCGWPRP | 0.0147
RRIRKRPPRLPRPRPRPDQHPRP | -0.0427
RRIRTRPPRLPRPRPRPHNYPRP | -0.329
RRIRPRPPRLPRPRPRPNCDPRP | -0.257
RRIRDRPPRLPRPRPRPAQQPRP | -0.0267
RRIRKRPPRLPRPRPRPALAPRP | 0.885
RRIRARPPRLPRPRPRPRGGPRP | 0.737

Sequence | shrunken log2 fold change
RRIRNRPPRLPRPRPRPAGYPRP | -0.0215
RRIRMRPPRLPRPRPRPINKPRP | -0.375
RRIRPRPPRLPRPRPRPVLYPRP | -0.335
RRIRCRPPRLPRPRPRPIEVPRP | -0.0598
RRIRTRPPRLPRPRPRPNQDPRP | -0.308
RRIRYRPPRLPRPRPRPQLTPRP | -0.0894
RRIRRRPPRLPRPRPRPIAWPRP | 0.0624
RRIRQRPPRLPRPRPRPYQVPRP | -0.0417
RRIRSRPPRLPRPRPRPYYPPRP | -2.8
RRIRKRPPRLPRPRPRPIHLPRP | -0.0911
RRIRGRPPRLPRPRPRPAEAPRP | 1.08
RRIRLRPPRLPRPRPRPDLVPRP | 0.00214
RRIRSRPPRLPRPRPRPQTAPRP | 0.0464
RRIRERPPRLPRPRPRPDLGPRP | -0.0853
RRIRNRPPRLPRPRPRPGGLPRP | -0.13
RRIRNRPPRLPRPRPRPVKAPRP | -0.0518
RRIRLRPPRLPRPRPRPKCSPRP | -0.035
RRIRGRPPRLPRPRPRPSHYPRP | -0.0921
RRIRARPPRLPRPRPRPEDHPRP | 0.392
RRIRVRPPRLPRPRPRPFFSPRP | -0.371
RRIRFRPPRLPRPRPRPVMSPRP | -0.153
RRIRCRPPRLPRPRPRPAMGPRP | -0.0638
RRIRSRPPRLPRPRPRPMSSPRP | -0.313

Sequence | shrunken log2 fold change
RRIRYRPPRLPRPRPRPTPSPRP | 0.421
RRIRPRPPRLPRPRPRPVEVPRP | -0.0864
RRIRMRPPRLPRPRPRPDSAPRP | 0.599
RRIRHRPPRLPRPRPRPFPRPRP | 0.0685
RRIRGRPPRLPRPRPRPRVLPRP | 0.367
RRIRRRPPRLPRPRPRPCAPPRP | 0.275
RRIRKRPPRLPRPRPRPVICPRP | 0.115
RRIRWRPPRLPRPRPRPQRMPRP | 0.0753
RRIRSRPPRLPRPRPRPDDDPRP | -0.0062
RRIRLRPPRLPRPRPRPVNCPRP | -0.0144
RRIRCRPPRLPRPRPRPHKQPRP | -0.0354
RRIRMRPPRLPRPRPRPCVCPRP | -0.00811
RRIRTRPPRLPRPRPRPAFAPRP | 0.282
RRIRGRPPRLPRPRPRPHNRPRP | 0.0391
RRIRARPPRLPRPRPRPHICPRP | -0.104
RRIRQRPPRLPRPRPRPIDGPRP | 0.0784
RRIRNRPPRLPRPRPRPHLEPRP | 0.0549
RRIRCRPPRLPRPRPRPEFEPRP | 0.0293
RRIRHRPPRLPRPRPRPLYEPRP | -0.211
RRIRVRPPRLPRPRPRPKNQPRP | -0.173
RRIRDRPPRLPRPRPRPIFAPRP | 0.142
RRIRERPPRLPRPRPRPQRTPRP | -0.233
RRIRDRPPRLPRPRPRPRNQPRP | -0.00575

Sequence | shrunken log2 fold change
RRIRFRPPRLPRPRPRPDDCPRP | 0.014
RRIRIRPPRLPRPRPRPDWNPRP | -0.993
RRIRVRPPRLPRPRPRPTIVPRP | -0.497
RRIRVRPPRLPRPRPRPPDIPRP | 0.248
RRIRERPPRLPRPRPRPEERPRP | 0.0375
RRIRQRPPRLPRPRPRPNPLPRP | -0.0379
RRIRIRPPRLPRPRPRPCREPRP | -0.0225
RRIRMRPPRLPRPRPRPPAVPRP | 1.44
RRIRFRPPRLPRPRPRPMLKPRP | -0.527
RRIRLRPPRLPRPRPRPPMPPRP | 0.0906
RRIRSRPPRLPRPRPRPYFSPRP | -0.611
RRIRMRPPRLPRPRPRPVVQPRP | -0.0427
RRIRHRPPRLPRPRPRPYQGPRP | -0.00674
RRIRYRPPRLPRPRPRPMNEPRP | -0.103
RRIRHRPPRLPRPRPRPATTPRP | -0.101
RRIRPRPPRLPRPRPRPLGQPRP | 0.0471
RRIRSRPPRLPRPRPRPAYMPRP | -0.608
RRIRARPPRLPRPRPRPLFGPRP | 0.235
RRIRLRPPRLPRPRPRPYCPPRP | -0.24
RRIRTRPPRLPRPRPRPGYHPRP | -0.315
RRIRRRPPRLPRPRPRPGFQPRP | 0.301
RRIRMRPPRLPRPRPRPHTSPRP | 0.242
